Drawing on US9029508 (dated 2015), this text covers EC50, Kd and IC50 for 19 molecules.

Test [1] addresses T1, NRP1 (human, UniProt O14786). Put plainly: ELISA. In general terms: An ELISA detects its analyte on a solid surface through an enzyme-linked reagent.
The target in test [2] is T1, NRP1. Put plainly: SPR.
In test [3] the target is T2, ErbB3 (human, UniProt P21860). Description: ELISA.
Test [4] addresses T2, ErbB3. Description: ELISA. The source holds these as a separate data set.
Test [5] deals with T2, ErbB3. Put plainly: SPR. A general note: SPR reads the build-up and loss of mass on a sensor chip optically.
The target of test [6] is T3, IGF1R (human, UniProt P08069). Put plainly: ELISA.
Test [7] has as its target T3, IGF1R. Description: SPR.
Test [8] deals with T3, IGF1R. Description: ELISA. This is another data set of the same source.
The target of test [9] is T4, DLL4 (human, UniProt Q9NR61). Put plainly: SPR.
T4 sequence (Q9NR61 27-524): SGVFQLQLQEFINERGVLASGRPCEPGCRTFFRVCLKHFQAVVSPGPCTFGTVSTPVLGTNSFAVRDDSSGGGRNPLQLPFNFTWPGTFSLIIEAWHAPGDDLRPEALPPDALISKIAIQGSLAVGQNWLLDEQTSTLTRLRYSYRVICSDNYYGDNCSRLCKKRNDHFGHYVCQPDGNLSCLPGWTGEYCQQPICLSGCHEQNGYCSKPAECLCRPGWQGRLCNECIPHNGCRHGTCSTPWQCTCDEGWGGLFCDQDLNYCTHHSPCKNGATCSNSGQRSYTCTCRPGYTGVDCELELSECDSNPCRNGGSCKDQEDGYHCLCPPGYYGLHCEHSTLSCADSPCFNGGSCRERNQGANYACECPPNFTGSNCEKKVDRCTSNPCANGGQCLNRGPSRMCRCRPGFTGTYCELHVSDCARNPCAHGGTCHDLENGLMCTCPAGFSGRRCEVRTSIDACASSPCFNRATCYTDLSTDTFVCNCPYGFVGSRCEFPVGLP
In test [10] the target is T4, DLL4. Put plainly: ELISA.
In test [11] the target is T4, DLL4. Description: ELISA. The source holds these as a separate data set.
For test [12], the target named is T4, DLL4. Description: competition.
The target of test [13] is T4, DLL4. Put plainly: ELISA. This is another data set of the same source.
Test [14] addresses T5, IGF2 (human, UniProt P01344). Put plainly: ELISA.
In test [15] the target is T5, IGF2. Description: SPR.
Test [16] deals with T6, IGF1 (human, UniProt P05019). Description: SPR.
In test [17] the target is T5, IGF2. Put plainly: ELISA. The source holds these as a separate data set.
Test [18] has as its target T6, IGF1. Put plainly: ELISA.
The target of test [19] is T6, IGF1. Put plainly: ELISA. This is another data set of the same source.
Another test deals with T7, CD19 (human, UniProt P15391).
T7 chain: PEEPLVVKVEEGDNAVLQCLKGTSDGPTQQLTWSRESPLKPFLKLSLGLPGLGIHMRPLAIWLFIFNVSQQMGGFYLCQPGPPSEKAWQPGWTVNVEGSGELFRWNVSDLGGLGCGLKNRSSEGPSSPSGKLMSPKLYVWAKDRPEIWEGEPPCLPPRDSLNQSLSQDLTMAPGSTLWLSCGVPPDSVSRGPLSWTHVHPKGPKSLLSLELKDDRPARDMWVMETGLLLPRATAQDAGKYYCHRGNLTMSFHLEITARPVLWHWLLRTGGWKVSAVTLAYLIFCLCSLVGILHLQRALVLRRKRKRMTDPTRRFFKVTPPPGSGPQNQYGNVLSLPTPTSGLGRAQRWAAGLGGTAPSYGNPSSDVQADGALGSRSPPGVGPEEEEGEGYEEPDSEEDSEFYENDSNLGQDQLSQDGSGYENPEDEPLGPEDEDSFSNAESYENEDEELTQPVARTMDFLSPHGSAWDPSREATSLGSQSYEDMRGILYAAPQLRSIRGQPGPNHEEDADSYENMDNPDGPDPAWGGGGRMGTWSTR
Put plainly: ELISA.

The next test has as its target CD40 (human, UniProt P25942). Put plainly: ELISA.

“And” between values parts separate entries of the source, which are not always exact repeats. Equal values may be shown once. Read-outs that look alike come from different tables or passages of the source.

The term EC50 denotes the midpoint of the concentration-response curve. What is called Kd is the constant that tells how readily two partners part at equilibrium. A low value points to tighter binding. Usually IC50 stands for the concentration needed to halve the response being measured. Read a low IC50 as inhibition by little substance.

CD40, sequence (P25942 21-193): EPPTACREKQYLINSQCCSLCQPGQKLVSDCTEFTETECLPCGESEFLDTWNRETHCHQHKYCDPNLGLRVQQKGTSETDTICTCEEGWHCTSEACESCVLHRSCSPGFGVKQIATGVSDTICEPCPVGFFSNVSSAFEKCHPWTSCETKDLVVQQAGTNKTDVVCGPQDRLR

B1: AB016 (antibody, V domains shown)
VH: EVQLVESGGGLVQPGGSLRLSCAASGFSFSSEPISWVRQAPGKGLEWVSSITGKNGYTYYADSVKGRFTISADTSKNTAYLQMNSLRAEDTAVYYCARWGKKVYGMDVWGQGTLVTVSS
VL: DIQMTQSPSSLSASVGDRVTITCRASQSISSYLAWYQQKPGKAPKLLIYGASSRASGVPSRFSGSGSGTDFTLTISSLQPEDFATYYCQQYMSVPITFGQGTKVEIKR
Molecule B1 gave an EC50 with NRP1 [1] of 0.58 nM. Further, in the test with NRP1 [2], binding was characterised by a dissociation constant (Kd) of 2.67 nM.

B2: DVD050 NRP1 arm (antibody, V domains shown)
VH: B1 VH
VL: B1 VL
modifications: DVD-Ig outer
On to B2, for which the response with NRP1 [1] was half-maximal at 0.46 nM (EC50). This molecule returned a dissociation constant (Kd) with NRP1 [2] of 1.44 nM.

B3: DVD305 ErbB3 arm (antibody, V domains shown)
VH: EVQLVESGGGLVQPGGSLRLSCAASGFTFSIYSMNWVRQAPGKGLEWVSYISSSSSTIYYADSVKGRFTISRDNAKNSLYLQMNSLRDEDTAVYYCARDRGDFDAFDIWGQGTMVTVSS
VL: DIQMTQSPSSLSASVGDRVTITCQASQDITNYLNWYQQKPGKAPKLLIYDASNLETGVPSRFSGSGSGTDFTFTISSLQPEDIATYNCQQCENFPITFGQGTRLEIKR
modifications: DVD-Ig outer
On to B3, for which the concentration for a half-maximal effect (EC50) with ErbB3 [3] amounted to 1.16 nM; in the test with ErbB3 [4], 0.44 nM. Besides, binding in the test with ErbB3 [5] was put at a Kd of 0.0603 nM.

B4: AB011 (antibody, V domains shown)
VH: EVQLLESGGGLVQPGGSLRLSCTASGFTFSSYAMNWVRQAPGKGLEWVSAISGSGGTTFYADSVKGRFTISRDNSRTTLYLQMNSLRAEDTAVYYCAKDLGWSDSYYYYYGMDVWGQGTTVTVSS
VL: DIQMTQFPSSLSASVGDRVTITCRASQGIRNDLGWYQQKPGKAPKRLIYAASRLHRGVPSRFSGSGSGTEFTLTISSLQPEDFATYYCLQHNSYPCSFGQGTKLEIKR
For the molecule B4, the EC50 with IGF1R [6] amounted to 0.28 nM; with IGF1R [8] it was 0.3 nM. The molecule also registered a Kd with IGF1R [7] of 0.848 nM.

B5: DVD032 IGF1R arm (antibody, V domains shown)
VH: B4 VH
VL: B4 VL
modifications: DVD-Ig outer
Consider B5, for which the half-maximal effective concentration (EC50) in the test with IGF1R [6] amounted to 0.16 nM; in the test with IGF1R [8], 0.2 nM. The Kd with IGF1R [7] was found to be 0.829 nM.

B6: DVD022 IGF1R arm (antibody, V domains shown)
VH: B4 VH
VL: B4 VL
modifications: DVD-Ig outer
As for B6, the EC50 stood at 0.26 nM with IGF1R [6] and 0.3 nM with IGF1R [8]. In addition, the affinity in the test with IGF1R [7], expressed as Kd, was 0.778 nM.

B7: AB015 (antibody)
chain 1: EVQLVESGGGLVQPGGSLRLSCAASGFTFTDNWISWVRQAPGKGLEWVGYISPNSGFTYYADSVKGRFTISADTSKNTAYLQMNSLRAEDTAVYYCARDNFGGYFDYWGQGTLVTVSS
chain 2: DIQMTQSPSSLSASVGDRVTITCRASQDVSTAVAWYQQKPGKAPKLLIYSASFLYSGVPSRFSGSGSGTDFTLTISSLQPEDFATTYYCQQSYTGTVTFGQGTKVEIKR
On to B7, for which the Kd with DLL4 [9] was 0.414 nM. In addition, the values for the concentration giving a half-maximal response (EC50) with DLL4 [10] and in the test with DLL4 [11] were 0.31 nM and 0.03 nM, respectively. In addition, in the test with DLL4 [12], the IC50 was 0.37 nM and 0.4 nM.

B8: DVD043 DLL4 arm (antibody)
chain 1: B7 chain 1
chain 2: B7 chain 2
modifications: DVD-Ig inner
Regarding B8, the Kd with DLL4 [9] was found to be 2.32 nM. Further, the EC50 in the test with DLL4 [10] came to 2.12 nM; in the test with DLL4 [11], 0.5 nM; in the test with DLL4 [13], 0.67 nM. Further, in the test with DLL4 [12], the 50% inhibitory concentration (IC50) was determined as 13.1 nM.

B9: DVD044 DLL4 arm (antibody)
chain 1: B7 chain 1
chain 2: B7 chain 2
modifications: DVD-Ig outer
In the test with DLL4 [9], B9 returned a Kd of 0.347 nM. In addition, the values for the concentration giving a half-maximal response (EC50) in the test with DLL4 [10], with DLL4 [11] and with DLL4 [13] were 0.53 nM, 0.06 nM and 0.25 nM, respectively. In the test with DLL4 [12], this molecule registered an IC50 of 0.5 nM.

B10: AB010 (antibody, V domains shown)
VH: QVQLVQSGAEVKKPGASVKVSCKASGYTFTSYDINWVRQATGQGLEWMGWMNPNSGNTGYAQKFQGRVTMTRNTSISTAYMELSSLRSEDTAVYYCARDPYYYYYGMDVWGQGTTVTVSS
VL: QSVLTQPPSVSAAPGQKVTISCSGSSSNIENNHVSWYQQLPGTAPKLLIYDNNKRPSGIPDRFSGSKSGTSATLGITGLQTGDEADYYCETWDTSLSAGRVFGGGTKLTVLG
As for B10, the EC50 with IGF2 [14] was 18.1 nM and 10 nM; in the test with IGF2 [17] it was 10 nM and 18.1 nM; with IGF1 [18], 4.77 nM; with IGF1 [19], 4.8 nM. Also, the Kd was < 0.000299 nM and 0.000423 nM with IGF2 [15]; 0.388 nM with IGF1 [16].

B11: DVD030 IGF1,2 arm (antibody, V domains shown)
VH: B10 VH
VL: B10 VL
modifications: DVD-Ig outer
In the case of B11, the EC50 is 5.49 nM in the test with IGF2 [14], 5.5 nM with IGF2 [17], 1.75 nM with IGF1 [18] and 1.8 nM with IGF1 [19]. Besides, the dissociation constant (Kd) with IGF2 [15] is 0.00234 nM; with IGF1 [16], 0.292 nM.

B12: DVD029 IGF1,2 arm (antibody, V domains shown)
VH: B10 VH
VL: B10 VL
modifications: DVD-Ig inner
With B12, the 50% effective concentration (EC50) was 206 nM with IGF2 [14], 206 nM in the test with IGF2 [17], 229 nM in the test with IGF1 [18] and 229 nM with IGF1 [19]. The Kd was found to be 0.302 nM with IGF2 [15] and 6.36 nM in the test with IGF1 [16].

B13: DVD002 CD19 arm (antibody, V domains shown)
VH: QVQLQQSGAELVRPGSSVKISCKASGYAFSSYWMNWVKQRPGQGLEWIGQIWPGDGDTNYNGKFKGKATLTADESSSTAYMQLSSLASEDSAVYFCARRETTTVGRYYYAMDYWGQGTSVTVSS
VL: DILLTQTPASLAVSLGQRATISCKASQSVDYDGDSYLNWYQQIPGQPPKLLIYDASNLVSGIPPRFSGSGSGTDFTLNIHPVEKVDAATYHCQQSTEDPWTFGGGTKLEIKR
modifications: DVD-Ig outer
The molecule B13 came in with an EC50 with CD19 of 0.07 nM. That is a picomolar value.

B14: DVD013 CD19 arm (antibody, V domains shown)
VH: B13 VH
VL: B13 VL
modifications: DVD-Ig inner
With B14, in the test with CD19, the EC50 turned out to be 7.29 nM.

B15: DVD001 CD19 arm (antibody, V domains shown)
VH: B13 VH
VL: B13 VL
modifications: DVD-Ig inner
In the test with CD19, B15 returned an EC50 of 12.9 nM.

B16: DVD014 CD19 arm (antibody, V domains shown)
VH: B13 VH
VL: B13 VL
modifications: DVD-Ig outer
Take B16: the response in the test with CD19 was half-maximal at 0.12 nM (EC50). This EC50 is about 110-fold lower than that of the molecule before.

B17: DVD010 CD40 arm (antibody, V domains shown)
VH: QVQLVESGGGVVQPGRSLRLSCAASGFTFSSYGMHWVRQAPGKGLEWVAVISYEESNRYHADSVKGRFTISRDNSKITLYLQMNSLRTEDTAVYYCARDGGIAAPGPDYWGQGTLVTVSS
VL: DIVMTQSPLSLTVTPGEPASISCRSSQSLLYSNGYNYLDWYLQKPGQSPQVLISLGSNRASGVPDRFSGSGSGTDFTLKISRVEAEDVGVYYCMQARQTPFTFGPGTKVDIRR
modifications: DVD-Ig outer
The molecule B17 showed an EC50 with CD40 of 0.82 nM.

B18: DVD009 CD40 arm (antibody, V domains shown)
VH: B17 VH
VL: B17 VL
modifications: DVD-Ig inner
Turning to B18, it took 3.55 nM to reach a half-maximal effect with CD40 (EC50).

B19: AB009 (antibody, V domains shown)
VH: B17 VH
VL: B17 VL
For the molecule B19, it took 0.99 nM to reach a half-maximal effect in the test with CD40 (EC50).
